Experimental data published in patent publication US20180002754A1.

Experiments:
[1] = molecular target: Frizzled-2 (human Fzd2) (human) (UniProt Q14332); assay: SPR (Biacore) binding analysis, text to Table 1 and FIG. 10
[2] = molecular target: Frizzled-2 (human Fzd2) (human) (UniProt Q14332); assay: SPR (Biacore, by Precision Antibody); antibody as ligand, Frizzled-2 as analyte at 0-500 nM
[3] = molecular target: Frizzled-2 (human Fzd2) (human) (UniProt Q14332); assay: SPR (BioCore study performed by Precision Antibody), legend of FIG. 10

Chain of UniProt Q14332 (Q14332 24-247 limits assumed): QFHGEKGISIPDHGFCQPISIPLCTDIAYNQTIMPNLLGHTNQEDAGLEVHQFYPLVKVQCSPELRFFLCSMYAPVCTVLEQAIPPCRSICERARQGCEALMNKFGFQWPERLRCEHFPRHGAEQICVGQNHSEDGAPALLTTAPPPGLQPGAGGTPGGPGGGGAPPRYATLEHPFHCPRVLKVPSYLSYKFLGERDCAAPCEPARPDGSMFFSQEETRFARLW

For “anti-Fzd2 antibody (R & D Systems; MAB1307)”, the Kd [1] was < 20 nM, the Ka [2] was 5.2e+07 M⁻¹ and the Kd [2] was 19 nM. It also gave a koff [2] of 0.00074 s⁻¹, a kon [2] of 39000 M⁻¹ s⁻¹ and a Kd [3] of 20 nM.
